Reference: patent US20160052996A1 (NEURIMMUNE, published 2016)

T1: JCV VP3 protein (Bioclone Inc) (JC virus (JCV), UniProt P03095 120-344)
T1 sequence: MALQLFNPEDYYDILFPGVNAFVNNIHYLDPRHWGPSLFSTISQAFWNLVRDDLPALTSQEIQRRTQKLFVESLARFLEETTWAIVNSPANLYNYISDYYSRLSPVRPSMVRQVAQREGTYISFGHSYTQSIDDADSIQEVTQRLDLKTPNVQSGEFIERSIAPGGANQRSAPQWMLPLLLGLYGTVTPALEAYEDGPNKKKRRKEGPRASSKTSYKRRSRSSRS

T2: JCV VP2 protein (Bioclone Inc) (JC virus (JCV), UniProt P03095 1-344)
T2 sequence (looked up): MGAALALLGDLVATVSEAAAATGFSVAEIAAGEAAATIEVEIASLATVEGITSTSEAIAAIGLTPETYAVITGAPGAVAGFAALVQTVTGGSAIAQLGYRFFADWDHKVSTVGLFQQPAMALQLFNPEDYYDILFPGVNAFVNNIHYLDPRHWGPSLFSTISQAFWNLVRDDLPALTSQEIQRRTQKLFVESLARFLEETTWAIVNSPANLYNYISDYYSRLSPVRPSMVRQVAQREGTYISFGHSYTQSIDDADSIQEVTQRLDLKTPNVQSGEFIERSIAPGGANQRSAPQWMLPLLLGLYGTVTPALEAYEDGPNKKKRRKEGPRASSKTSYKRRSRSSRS

B1: NI-307.6A2 (antibody, V domains shown)
VH: QVQLQESGPGLVKPSETLSLTCAVSGGSVSSSYWYSWVRQLPGKGLEWIGEIFHTGDTNYNPSLESRVTISIDTSKNQLSLDVTSATAADTAVYYCARDYCTDSGCDSDALDVWGHGTMVTVSS
VL: QSALTQPASVSGSPGQSITISCTGTTKDVGNYNLVSWYQQHPGKAPRLVIYEVSERPSGVSNRFSGSKSGNTASLTISGLQAEDEADYHCCSYAGSGTSVFGGGTKVTVL
B2: NI-307.57D5 (antibody, V domains shown)
VH: EVQLVESGGGLAQPGGSLRLSCAGSGFTLSDFAMSWVRRAPGKGLEWVSSLTPSGRNSFYSDSVKGRFTISRDNWKNTLYLEMNLLRPEDTAVYYCARPGAPKNSDSKYSYVRVDFQHWGQGTLVTVSS
VL: NFMLTQPHSVSESPGRTVTISCTRSSGSIANNFVQWYQHRPGSAPTTLIYEDDQRPSGVPDRFSGSVDSFSNSASLTISGLKTEDEADYFCQSYDNHNWVFGGGTTLTVL
B3: NI-307.18E12 (antibody, V domains shown)
VH: QVQLQQWGAGLLKPSETLSLTCAVYGDSFSGFFWAWIRQTPGTGLEWIGEIQHGGSPTYNPSFESRLTISTDASKSQVSLKMTSVTVTDTAIYYCARCIRGKYGSGSLQLWSQGTLVTVSS
VL: DIQLTQSPSFLSASVGDRVTITCRASQDINYHLAWYRQKPGKAPDLLIHSAHTLHIGVSSRFSGSGSGTEFTLTIHTLQPEDFATYYCHQPKTFPPTFGGGTKVDIK
B4: NI-307.24F3 (antibody, V domains shown)
VH: QVQLQESGGGVVQPGRSLRLSCAASGFSFNRYGMHWVRQAPGKGLEWLAVISNDGVNTHYADSVKGRFTISRDNSKSTLYLQASSLRVEDTAVYYCAGYYYGSGTSLFFYWGQGTLVTVSS
VL: EIVLTQSPDSLAVSLGERATINCKSSQTVLYSSNNQNYLAWYQQKPGQPPKLLLYWASTRESGVPDRFSGSGSGTDFTLTISSLQPEDVAVYYCQQYYTAPYTFGQGTKVEIK
B5: NI-307.78C3 (antibody, V domains shown)
VH: QVQLQESGPGLVKPSGTLSLTCTVSGGSISGRIWWSWVRQPPGKGLEWIGEIYHSGSTNYSPSLRGRVTISVDTSKQHFSLKMTSVTAADTAMYYCVRGELALGFDSWGQGTLVTVSS
VL: QSALTQPPSASGSPGQSVTISCTGTSSDVGGYNSVSWYQQHPRRAPKLMIYEVSKRPSGVPDRFSGSKSGNTASLTVSGLQADDEAHYYCSSYAGSNNLVFGGGTMLTVL
B6: NI-307.24C6 (antibody, V domains shown)
VH: QLQLQESGPGLVKPSGTLSLICVVSGSSIRSNIWWWNWVRQSPGKGLEWIGEIYHSGSTNYSPSLKSRVTMSVDNSKNQFSLKMSSVTAADTAVYFCAINTRTSISGVLYDTFDVWGQGTMVTVSS
VL: EIVLTQSPATLSLSSGERATLSCRASQSVSGYLAWYQQKPGQAPRLLIYDGSNRATGIPARFSGSGSGTDFTLTISSLEPEDFAVYYCQHRSNWPMYTFGQGTKLEIK
B7: NI-307.26E10 (antibody, V domains shown)
VH: EVQLVESGGGLVLPGGSLRLSCAVSGFTVRNEYMRWARQAPGRGLEWVSVIYRDGQTHHADTVKGRFDVSKDTSKNTMYLQMHNLRVDDTAIYYCARGHYGPWGQGTLVTVSS
VL: DIQMTQSPSTLPASVGDRVTITCRASQSINNWLAWYQQKPGKAPNLLIYDASNLETGVPSRFSGSGSGTEFTLTISSLQPDDFATYYCQQYNSHSHTWTFGQGTKVEIK
B8: NI-307.44F6B (antibody, V domains shown)
VH: EVQLVESGGSVVRPGGSLRLACEVSGLRFDDFAMSWVRQVPGKGLEWIAGIFWNSGGTLYADSVKGRFTISRDNAENSLYLQMNSLRAEDTALYRCVRGRSHAAYYGMDVWGKGTTVTVSS
VL: EIVLTQSPLSLPVTPGEPASISCRSSQSLLHSNGYNYLDWYLQKPGQSPQLLIYLGSNRASGVPDRFSGSGSGTDFTLTISRVEAEDVGIYYCMQALQNALAFGGGTKLEIK
B9: NI-307.18F4A (antibody, V domains shown)
VH: EVQLVESGGGLVKPGGSLRLSCAASGFTFTNYYMTWVRQAPGKGLEWVSYITGGGSTTYYADSVTGRFTISRDNAKNSLYLQMSSLRVEDTAVYYCARGRGYPDNWFDPWGQGTLVTVSS
VL: SYVLTQPPSVSVSPGQTARITCSGDALPKQYVYWYQQKPGQAPVLMIYKDAERPSGIPDRFSGSSSGTTVTLTISGVQAEDEADYYCQSTDISGAAVVFGGGTKLTVL
B10: NI-307.20F5 (antibody, V domains shown)
VH: EVQLVESGGGVVQPGTSLRLSCAASGFSFNKYGVHWVRQAPGKGLEWVANIWYDGTNPFYADFVKGRFVISRDTSKNTIYLQMNRLRAEDTAVYYCARDAFCGGDCYGGLLHGLDVWGQGTTVTVSS
VL: DVVMTQSPLSLPVTPGEPASISCRSSQSLLHSNGLNYLDWYLQKPGQSPQLLIYLGSNRAPGVPDRFSGSGSGTDFTLKISRVEAEDVGVYYCLQALQTPAFGQGTKVEIK
B11: NI-307.61D11 (antibody, V domains shown)
VH: EVQLVQSGAEVKKPGASVKVSCKTSGYTFIGHYMQWVRQVPGQGFEWMGWINPNTGTTKYALKFKDRVTVTRDTSTATVYMEFHGLTSDDTAVYYCARASAYQLANYDYWGQGTLVTVSS
VL: QSALTQPASVSGSPGQSITISCAGTSNDVGDDDFVSWYQHQPGKAPRLMIYEVTNRPSGVSTRFSGSKSGNTASLTISGLQAEDEGDYYCMSYTKNSALGYVFGGGTKVTVL
B12: NI-307.19F10 (antibody, V domains shown)
VH: EVQLVESGGGLVQPGGSVSLSCAASGFTFPVYWMHWVRQAPEKGLMWVSRISPDGTIVDYAGSVKGRFTVSRDNAKNILYLQIQRLTAEDTAVYFCTKDFDVASGFWGQGTLVTVSS
VL: QSALTQPPSASGSPGQSVTISCTGSKSDVGTCHFVSWYQQHPGKVPKLVIYEGNKRPSGVPDRFSASKSGNTASLTISGLQPGDEADYYCSTCAGPNNYVFGTGTKVTVL
B13: NI-307.5H3 (antibody, V domains shown)
VH: QVQLQESGPGLLKPLGTLSLICDVSGDSISSSNWWSWVRQSPRKGLEWIGEIYHSGRTNYNPSLTNRVTISVDKSKNQFSLNLNSVTAADTGVYYCARWDYYYNNDYYIRGFDIWGQGTMVTVSS
VL: EIVLTQSPGILSLSPGERATLSCRASQSVDSNYLAWYQQKPGQAPRLLIYSTSTRAAGVPDRFSGSGSGTDFALTISGLEPEDFAVYYCQQWGGSPPITFGQGTRLEIK
B14: NI-307.25G10 (antibody, V domains shown)
VH: EVQLVESGGGLVQPGGSLRLSCVASGIIFKDYDFHWVRQVKEKGLEWVSAIGTAGDPYYAASVKGRFTVSRENGKNSVYLRMNNVGAGDTALYYCTSGNYFDRGSFRPSAFDMWGQGTMVTVSS
VL: EIVLTQSPGTLSLSPGERATLSCWASQSVSSNYLAWYQHKPGQAPRLLIFRASRRATDIPERFSAGGSGTDFTLTISRLEAEDSAVYYCQEYGSAPPASITFGQGTRLEIK
B15: NI-307.3G4 (antibody, V domains shown)
VH: QVQLVQSGAELKKPGAAVKVSCQASGYNFLSYGINWVRQIPGQGLQWLGWISTYDGTMNYDQKPDNRVTVTTDTSSSTVYLELRGLRSDDTGVYYCVRDRCAGAGCSHSLGYWGQGTLVTVSS
VL: DIQMTQSPSALSASVGDRVTISCRASQNINTQLNWYQEKPGKAPELLIYGAFNLQSGAPSTFSGSGSGTDFTLTITSLQPEDFASYYCQQGFHAPYTFGRGTKVDIK
B16: NI-307.43A11 (antibody, V domains shown)
VH: QVQLQESGPGLVKPSGTLSLTCAVTGGSISSSNWWSWVRQSPGKGLEWIGEIHHDGNLNYNPLLKSRVSMSLDRSKNQFSLKLTSVTAADTAVYYCARWDFFFDSSYYIRGFDLWGQGTMVTVSS
VL: ETTLTQSPGTLSLSPGERVTLSCRASQSVDRNYLAWYQQKPGQSPRLLIYSASRRATGIPDRFSGSGSGTDFTLTISRLEPEDFVVYYCQQYGGSPPITFGQGTRLEIK

What was measured:
BSA (Sigma-Aldrich) = molecular target: T3, BSA (Sigma-Aldrich) (bovine, UniProt P02769 25-607); assay: direct ELISA
T3 construct: also called bovine serum albumin
T3 sequence (P02769 25-607 limits assumed): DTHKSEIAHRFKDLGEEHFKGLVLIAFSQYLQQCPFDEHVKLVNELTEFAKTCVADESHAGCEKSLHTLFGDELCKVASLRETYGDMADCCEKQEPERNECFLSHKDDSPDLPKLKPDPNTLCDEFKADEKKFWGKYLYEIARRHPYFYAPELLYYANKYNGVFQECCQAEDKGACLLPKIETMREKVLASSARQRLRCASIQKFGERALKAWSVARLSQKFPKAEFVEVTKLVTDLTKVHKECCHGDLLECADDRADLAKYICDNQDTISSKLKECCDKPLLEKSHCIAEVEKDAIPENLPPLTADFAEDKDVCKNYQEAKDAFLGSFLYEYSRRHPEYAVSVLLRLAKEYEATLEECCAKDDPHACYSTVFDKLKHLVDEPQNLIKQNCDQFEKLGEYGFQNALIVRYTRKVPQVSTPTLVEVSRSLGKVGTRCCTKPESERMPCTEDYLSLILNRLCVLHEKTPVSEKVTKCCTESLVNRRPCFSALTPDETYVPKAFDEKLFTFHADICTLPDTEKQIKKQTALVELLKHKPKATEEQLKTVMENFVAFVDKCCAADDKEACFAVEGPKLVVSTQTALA

JCV VP1 VLP [1] = molecular target: T4, JCV VP1 VLP (JC virus (JCV), Mad-1 strain, UniProt P03089 1-354); assay: direct ELISA
T4 construct: also called JCV VP1 VLPs; JCV VP1 (coating with reassociation buffer)

JCV VP1 VLP [2] = molecular target: T4, JCV VP1 VLP; assay: direct ELISA, plate coated with antigen at 5 µg/ml in reassociation buffer (VLP); EC50 by non-linear regression (GraphPad Prism)
[3] = molecular target: T1, JCV VP3 protein (Bioclone Inc); assay: direct ELISA, antigens coated at 1 µg/mL; bar groups labelled 100 nM, 20 nM, 4 nM, 0.8 nM
[4] = molecular target: T2, JCV VP2 protein (Bioclone Inc); assay: as above

Binder | binding result (BSA (Sigma-Aldrich)) | EC50 (JCV VP1 VLP [1]) | EC50 (JCV VP1 VLP [2]) | binding result [3] | binding result [4]
B1 | no binding | 1.39 nM |  |  | 
B2 | no binding | 57 nM |  |  | 
B3 | no binding |  | 19.9 nM |  | 
B4 |  | 6.95 nM |  |  | 
B5 | no binding | 0.932 nM |  |  | 
B6 | no binding | 2.84 nM |  |  | 
B7 | no binding | 14.9 nM |  | no binding (tested: 100 nM) | no binding (tested: 100 nM)
B8 | no binding | 0.083 nM |  |  | 
B9 | no binding |  | 55 nM |  | 
B10 | no binding |  |  |  | 
B11 | no binding |  | 17.7 nM |  | 
B12 | no binding | 3.41 nM |  |  | 
B13 | no binding | 1.16 nM |  |  | 
B14 | no binding | 0.509 nM |  | no binding (tested: 100 nM) | no binding (tested: 100 nM)
B15 | no binding | 28.2 nM |  |  | 
B16 | no binding | 6.15 nM |  |  | 
